Reference: patent US20210355194A1 (TWIST BIOSCIENCE, published 2021)
Changes are numbered by the printed parent chain.

B1: ACE2 variant antibody 4-62 (VHH)
VHH: EVQLVESGGGLVQPGGSLRLSCAASGRTFSDDTMGWFRQAPGKEREFVAAINWSGGSTDYADSVKGRFTISADNSKNTAYLQMNSLKPEDTAVYYCATDPPLFWGQGTLVTVSS
B2: ACE2 variant antibody 4-78 (VHH)
VHH: B1 VHH with A50G, I51M, N52T, G56S, D59F
B3: ACE2 variant antibody 4-75 (VHH)
VHH: B1 VHH with S30G, S54T, S57Y, D59P
B4: ACE2 variant antibody 4-63 (VHH)
VHH: B1 VHH with D32Y, S57Y, D59Y
B5: ACE2 variant antibody 4-82 (VHH)
VHH: B1 VHH with S30G, D32Y, T33A, S57Y, D59R
B6: ACE2 variant antibody 4-67 (VHH)
VHH: B1 VHH with G56D, D59Y
B7: ACE2 variant antibody 4-69 (VHH)
VHH: B1 VHH with T33A, S57T, D59R
B8: ACE2 variant antibody 4-76 (VHH)
VHH: B1 VHH with S30G, D32Y, T33A, F47L, A50P, D59Y
B9: ACE2 variant antibody 4-74 (VHH)
VHH: B1 VHH with R27L, I51V, N52S, S57N, D59Y
B10: ACE2 variant antibody 4-89 (VHH)
VHH: EVQLVESGGGLVQPGGSLRLSCAASGFAFGDNWIGWFRQAPGKEREWVASISSGGTTAYADNVKGRFTIIADNSKNTAYLQMNSLKPEDTAVYYCAHRGGWLRPWGYWGQGTLVTVSS
B11: ACE2 variant antibody 4-33 (VHH)
VHH: EVQLVESGGGLVQPGGSLRLSCAASGFTFSRHDMGWFRQAPGKEREFVAGINWESGSTNYADSVKGRFTISADNSKNTAYLQMNSLKPEDTAVYYCAADRGVYGGRWYRTSQYTWGQGTLVTVSS
B12: ACE2 variant antibody 4-52 (VHH)
VHH: EVQLVESGGGLVQPGGSLRLSCAASGRSFSNSVMGWFRQAPGKEREFVARITWNGGSTYYADSVKGRFTISADNSKNTAYLQMNSLKPEDTAVYYCATTENPNPRWGQGTLVTVSS
B13: ACE2 variant antibody 4-39 (VHH)
VHH: B12 VHH with S28T, S32A, V33A, T52L, N54T, G56A, T58R, Y59N
B14: ACE2 variant antibody 4-57 (VHH)
VHH: EVQLVESGGGLVQPGGSLRLSCAASGLTFRNYAMGWFRQAPGKEREFVAAIGSGGYTDYADSVKGRFTISADNSKNTAYLQMNSLKPEDTAVYYCAVKPGWVARDPSQYNWGQGTLVTVSS
B15: ACE2 variant antibody 3-8 (antibody, V domains shown)
VH: EVQLLESGGGLVQPGGSLRLSCAASGFTFRSHAMSWVRQAPGKGLEWVSSISGGGASTYYADSVKGRFTISRDNSKNTLYLQMNSLRAEDTAVYYCARVKYLTTSSGWPRPYFDNWGQGTLVTVSS
VL: DIQMTQSPSSLSASVGDRVTITCRASQSIGKYLNWYQQKPGKAPKLLIYASSTLQRGVPSRFSGSGSGTDFTLTISSLQPEDFATYYCQQSLSTPFTFGQGTKVEIK
B16: ACE2 variant antibody 3-9 (antibody, V domains shown)
VH: B15 VH with H32Y
VL: B15 VL with L92F
B17: ACE2 variant antibody 3-13 (antibody, V domains shown)
VH: EVQLLESGGGLVQPGGSLRLSCAASGFTITNYAMSWVRQAPGKGLEWVSGISGSGAGTYYADSVKGRFTISRDNSKNTLYLQMNSLRAEDTAVYYCARHTWWKGAGFFDHWGQGTLVTVSS
VL: B15 VL with K31R, S51A, T53S, Q55K, R56S, L92Y, T94L, F96R
B18: ACE2 variant antibody 4-56 (VHH)
VHH: EVQLVESGGGLVQPGGSLRLSCAASGFSLDYYGMGWFRQAPGKERESVAAISWNGDFTAYADSVKGRFTISADNSKNTAYLQMNSLKPEDTAVYYCAKRANPTGAYFDYWGQGTLVTVSS
B19: ACE2 variant antibody 3-12 (antibody, V domains shown)
VH: EVQLLESGGGLVQPGGSLRLSCAASGFTFRSHAMNWVRQAPGKGLEWVSAISGSGGSTNYADSVKGRFTISRDNSKNTLYLQMNSLRAEDTAVYYCARGLKFLEWLPSAFDIWGQGTLVTVSS
VL: DIQMTQSPSSLSASVGDRVTITCRTSQSINTYLNWYQQKPGKAPKLLIYGASNVQSGVPSRFSGSGSGTDFTLTISSLQPEDFATYYCQQSYRIPRTFGQGTKVEIK
B20: ACE2 variant antibody 4-25 (VHH)
VHH: EVQLVESGGGLVQPGGSLRLSCAASGGTFSRYAMGWFRQAPGKEREWVSAVDSGGSTYYADSVKGRFTISADNSKNTAYLQMNSLKPEDTAVYYCAASPSLRSAWQWGQGTLVTVSS
B21: ACE2 variant antibody 4-64 (VHH)
VHH: EVQLVESGGGLVQPGGSLRLSCAASGRTFGDYIMGWFRQAPGKERESVAAINWSAGYTAYADSVKGRFTISADNSKNTAYLQMNSLKPEDTAVYYCATASPNTGWHFDHWGQGTLVTVSS
B22: ACE2 variant antibody 4-61 (VHH)
VHH: B21 VHH with S47I, G56D, A59P, S100P
B23: ACE2 variant antibody 4-95 (VHH)
VHH: B21 VHH with S47I, S100P, N102L, T103F, G104C
B24: ACE2 variant antibody 4-49 (VHH)
VHH: B21 VHH with T98R
B25: ACE2 variant antibody 4-41 (VHH)
VHH: EVQLVESGGGLVQPGGSLRLSCAASGRTFGDYIMGWFRQAPGKERESVAAINWSGGTTPYADSVKGRFTISADNSKNTAYLQMNSLKPEDTAVYYCATDPPLFCCHVDLWGQGTLVTVSS
B26: variant 6-112 (Fc fusion)
VHH: EVQLVESGGGLVQPGGSLRLSCAASGGTFSAYHMGWFRQAPGKERELVTIIDNGGPTSYADSVKGRFTISADNSKNTAYLQMNSLKPEDTAVYYCTALLYYFDNSGYNFDPFDIWGQGTLVTGSS
B27: variant 6-108 (Fc fusion)
VHH: EVQLVESGGGLVQPGGSLRLSCAASGGTFGSYGMGWFRQAPGKEREFVAAIRWSGGITYYADSVKGRFTISADNSKNTAYLQMNSLKPEDTAVYYCARERYWNPLPYYYYGMDVWGQGTLVTVSS
B28: variant 6-81 (Fc fusion)
VHH: EVQLVESGGGLVQPGGSLRLSCAASGFIGNYHAMGWFRQAPGKEREFVAAVTWSGGTTNYADSVKGRFTISADNSKNTAYLQMNSLKPEDTAVYYCAREGYYYDSSGYPYYFDYWGQGTLVTVSS
B29: variant 6-3 (Fc fusion)
VHH: EVQLVESGGGLVQPGGSLRLSCAASGFTFSPSWMGWFRQAPGKEREFVATINEYGGRNYADSVKGRFTISADNSKNTAYLQMNSLKPEDTAVYYCARVDRDFDYWGQGTLVTVSS

Each binder was assayed against T1, ACE2 (human, UniProt Q9BYF1 18-740) (assay: not given).
T1 sequence (Q9BYF1 18-740 limits assumed): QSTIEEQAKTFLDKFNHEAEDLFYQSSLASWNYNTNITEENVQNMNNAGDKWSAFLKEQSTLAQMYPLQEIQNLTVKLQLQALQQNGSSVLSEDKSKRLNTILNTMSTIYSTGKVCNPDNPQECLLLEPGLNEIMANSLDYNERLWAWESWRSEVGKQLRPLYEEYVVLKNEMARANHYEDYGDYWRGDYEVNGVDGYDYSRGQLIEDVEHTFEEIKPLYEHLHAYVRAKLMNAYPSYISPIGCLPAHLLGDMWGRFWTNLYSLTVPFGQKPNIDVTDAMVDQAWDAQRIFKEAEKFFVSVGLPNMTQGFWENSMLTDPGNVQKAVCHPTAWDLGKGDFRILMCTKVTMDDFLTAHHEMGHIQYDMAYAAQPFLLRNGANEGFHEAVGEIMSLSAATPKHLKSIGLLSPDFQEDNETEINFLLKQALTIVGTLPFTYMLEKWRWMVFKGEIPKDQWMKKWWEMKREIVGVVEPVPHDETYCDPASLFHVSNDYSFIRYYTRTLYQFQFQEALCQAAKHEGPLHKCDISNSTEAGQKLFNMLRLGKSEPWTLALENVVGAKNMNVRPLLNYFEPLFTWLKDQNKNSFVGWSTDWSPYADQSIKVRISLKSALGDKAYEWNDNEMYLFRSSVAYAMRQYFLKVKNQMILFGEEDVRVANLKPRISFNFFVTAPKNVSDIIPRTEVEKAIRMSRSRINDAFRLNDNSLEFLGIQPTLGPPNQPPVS

Binder | koff | kon
B1 | 0.00365 s⁻¹ | 245000 M⁻¹ s⁻¹
B2 | 0.00263 s⁻¹ | 247000 M⁻¹ s⁻¹
B3 | 0.00478 s⁻¹ | 299000 M⁻¹ s⁻¹
B4 | 0.00105 s⁻¹ | 610000 M⁻¹ s⁻¹
B5 | 0.00333 s⁻¹ | 301000 M⁻¹ s⁻¹
B6 | 0.00214 s⁻¹ | 93900 M⁻¹ s⁻¹
B7 | 0.00256 s⁻¹ | 99400 M⁻¹ s⁻¹
B8 | 0.00428 s⁻¹ | 135000 M⁻¹ s⁻¹
B9 | 0.00285 s⁻¹ | 248000 M⁻¹ s⁻¹
B10 | 0.000611 s⁻¹ | 2.04e+06 M⁻¹ s⁻¹
B11 | 0.000552 s⁻¹ | 229000 M⁻¹ s⁻¹
B12 | 0.00149 s⁻¹ | 126000 M⁻¹ s⁻¹
B13 | 0.0137 s⁻¹ | 136000 M⁻¹ s⁻¹
B14 | 0.00239 s⁻¹ | 307000 M⁻¹ s⁻¹
B15 | 0.00509 s⁻¹ | 114000 M⁻¹ s⁻¹
B16 | 0.00569 s⁻¹ | 83600 M⁻¹ s⁻¹
B17 | 0.0102 s⁻¹ | 80900 M⁻¹ s⁻¹
B18 | 0.00237 s⁻¹ | 130000 M⁻¹ s⁻¹
B19 | 0.00649 s⁻¹ | 15500 M⁻¹ s⁻¹
B20 | 0.00303 s⁻¹ | 78700 M⁻¹ s⁻¹
B21 | 0.0007 s⁻¹ | 2.9e+06 M⁻¹ s⁻¹
B22 | 0.00286 s⁻¹ | 348000 M⁻¹ s⁻¹
B23 | 0.00772 s⁻¹ | 415000 M⁻¹ s⁻¹
B24 | 0.00098 s⁻¹ | 2.91e+06 M⁻¹ s⁻¹
B25 | 0.001 s⁻¹ | 180000 M⁻¹ s⁻¹

Biological target: T1, ACE2
Assay: not given
Remark: another data set of the same source

Binder | Kd | koff | kon
B1 | 14.9 nM | 0.00365 s⁻¹ | 245000 M⁻¹ s⁻¹
B2 | 10.7 nM | 0.00263 s⁻¹ | 247000 M⁻¹ s⁻¹
B3 | 16 nM | 0.00478 s⁻¹ | 299000 M⁻¹ s⁻¹
B4 | 1.7 nM | 0.00105 s⁻¹ | 610000 M⁻¹ s⁻¹
B5 | 11.1 nM | 0.00333 s⁻¹ | 301000 M⁻¹ s⁻¹
B6 | 22.8 nM | 0.00214 s⁻¹ | 93900 M⁻¹ s⁻¹
B7 | 25.8 nM | 0.00256 s⁻¹ | 99400 M⁻¹ s⁻¹
B8 | 31.8 nM | 0.00428 s⁻¹ | 135000 M⁻¹ s⁻¹
B9 | 11.5 nM | 0.00285 s⁻¹ | 248000 M⁻¹ s⁻¹
B10 | 0.3 nM | 0.000611 s⁻¹ | 2.04e+06 M⁻¹ s⁻¹
B11 | 2.4 nM | 0.000552 s⁻¹ | 229000 M⁻¹ s⁻¹
B12 | 11.8 nM | 0.00149 s⁻¹ | 126000 M⁻¹ s⁻¹
B13 | 101 nM | 0.0137 s⁻¹ | 136000 M⁻¹ s⁻¹
B14 | 7.8 nM | 0.00239 s⁻¹ | 307000 M⁻¹ s⁻¹
B15 | 44.6 nM | 0.00509 s⁻¹ | 114000 M⁻¹ s⁻¹
B16 | 68 nM | 0.00569 s⁻¹ | 83600 M⁻¹ s⁻¹
B17 | 126 nM | 0.0102 s⁻¹ | 80900 M⁻¹ s⁻¹
B18 | 18.2 nM | 0.00237 s⁻¹ | 130000 M⁻¹ s⁻¹
B19 | 420 nM | 0.00649 s⁻¹ | 15500 M⁻¹ s⁻¹
B20 | 38.5 nM | 0.00303 s⁻¹ | 78700 M⁻¹ s⁻¹
B21 | 0.2 nM | 0.0007 s⁻¹ | 2.9e+06 M⁻¹ s⁻¹
B22 | 8.2 nM | 0.00286 s⁻¹ | 348000 M⁻¹ s⁻¹
B23 | 18.6 nM | 0.00772 s⁻¹ | 415000 M⁻¹ s⁻¹
B24 | 0.3 nM | 0.00098 s⁻¹ | 2.91e+06 M⁻¹ s⁻¹
B25 | 5.6 nM | 0.001 s⁻¹ | 180000 M⁻¹ s⁻¹

What follows are binders tested against T2, Acro SARS-CoV-2 (COVID-19) S1 protein (SARS-CoV-2, UniProt P0DTC2 16-685) (assay: SPR).
T2 construct: also called SARS-CoV-2 S1

Binder | Kd
B26 | 3230 nM
B27 | 69.4 nM

Each binder was assayed against T3, Acro SARS-CoV-2 (COVID-19) S1 protein (SARS-CoV-2, UniProt P0DTC2 16-685) (assay: SPR).
T3 construct: also called SARS-CoV-2 S1

Binder | Kd
B28 | 12.9 nM
B29 | 12.4 nM
